The results in this text go back to patent US5091176A, “Polymer-modified peptide drugs having enhanced biological and pharmacological activities” (W. R. Grace & Co.-Conn., priority 1990, dated 1992).

Series [1] addresses T1, alkaline phosphatase (Bos taurus, UniProt P19111). Briefly: Residual enzymatic activity of alkaline phosphatase after polymer modification (Example V, Table I). It counts as biochemical. Conditions: for alk phos activity dA/dt: alkaline phosphatase reacted 1 hour with prepolymer at the listed NCO:protein NH2 ratio, quenched with TRIS, dialyzed; for alk phos activity % Remaining: relative to control without prepolymer, prepolymer at the listed NCO:protein NH2 ratio. The protocol: A constant amount of protein was treated with increasing amount of prepolymer and the residual activity was determined. For comparison with Prepolymer A (high temperature) prepolymers, two other isocyanate prepolymers were used. One is a 550 dalton mono methoxy polyethylene oxide end capped with IPDI; the second is a diol ([…] P-24) of molecular weight 2200 comprising 80% ethylene oxide and 20% propylene oxide, end capped with IPDI. Thus the 3+functionality of Prepolymer A is compared to mono- and di-functional isocyanate derivatives.
After one hour at ambient temperature the residual isocyanate was quenched by addition of 9 ml of 0.5 M TRIS, pH 9.0. The samples were then dialyzed vs. 0.05 M sodium borate, pH 9.0 at 4° C. using 7000 MWCO dialysis tubing. Samples of each were assayed for enzymatic activity then stored frozen.
Table 1 lists the relative amounts of protein amine and polymer isocyanate reacted, and the residual enzymatic activity remaining.

A short description of series [2]: Circulatory half-life of radioiodinated peptide and conjugate after tail vein injection. The arrangement: species or system C57B1/6 mice. Conditions: mouse, in vivo. The protocol:
The conjugate from Example XIII was passed over a disposable Sephadex G25 column (PD10 from Pharmacia, Inc.) to separate free from polymer-bound peptide. Confirmation of the purity of the conjugate was obtained by HPLC. About 45 μg of conjugate (based on peptide) were radiolabeled with 125-iodine using the well known chloramine-T procedure. Free 125-iodine was separated from radiolabeled conjugate using a PD10 column. Of the original 30 μCi of Na^125 I used for the iodination, more than 23 μCi were incorporated into the conjugate.
Portions of the radiolabeled YRGDS-Prepolymer A conjugate from Example XIV were injected into the tail veins of C57B1/6 mice. As a control, YRGDS free peptide was radioiodinated by the procedure described in Example XIV and also injected. At various times blood was withdrawn from the animals and the amount of radioiodine remaining in the circulation determined using a gamma counter. A biphasic clearance curve (α:β) was obtained for both species. […] Thus by coupling the peptide to this polymer its clearance rate from the circulation is markedly extended.

Series [3] has as its system alkaline phosphatase. Particulars: alkaline phosphatase 50 ng/well; rabbit antisera, day 35 test bleed; FIG. 1.
Protocol: Antibody titers in the five rabbit sera from Example VI were determined by ELISA based on the following general procedure:
1) antigen is immobilized in 96-well PVC plates,
2) test antiserum is diluted with phosphate-TWEEN-chicken serum (PTCS) and incubated on the plate for 1 hour,
3) the plate is washed and Biotin-Protein A is added for 1 hour,
4) the plate is washed and glucose oxidase-avidin is added for 15 minutes.
5) the plate is washed and substrate (glucose+peroxidase+ABTS) is added. Absorbance at 405 nm is read at intervals on a plate reader.
Series [4] concerns the target T1, alkaline phosphatase. Briefly: Residual enzyme activity of alkaline phosphatase-Prepolymer A conjugates, p-nitrophenylphosphate as substrate (Examples IX, X). Also noted: Alkaline Phosphatase from calf intestine, Type I, was obtained from Sigma; purchased Sigma Type I; host or cells: calf intestine (tissue-derived). The series is classed as biochemical, calf. Particulars: after 1 hour at ambient temperature.
Protocol: Alkaline Phosphatase from calf intestine, Type I, was obtained from Sigma. A 5 mg/ml solution was prepared in 0.01 M Tris, pH 8.0, containing 1mM CaCl2. To 0.2 ml of this enzyme solution was added 0.02 ml of a 50% (w/w) solution of Prepolymer A (low temperature) in acetonitrile. After 1 hour at ambient temperature the solution was assayed for residual enzyme activity and injected into an HPLC to evaluate the molecular size of the conjugate. […] Size analysis was performed by HPLC using a Zorbax GF250 column (DuPont) and a mobile phase consisting of 0.05 M sodium phosphate, pH 7.0, with 0.3 M NaCl at a flow rate of 0.5 ml/min.

Turning to alkaline phosphatase, on alkaline phosphatase [1], the “alk phos activity dA/dt” value was 0.1200 and the “alk phos activity % Remaining” value stood at 100.0%. For the molecule tyr-arg-gly-aspser [YRGDS free peptide], in series [2], the “half-life of the initial phase (t178 α)” value worked out at 30 s, the “label cleared in the initial phase” value is reported as “about 75%” and the “second phase half life (t1/2 β)” value was found to be 2 hours 40 minutes.

B1: A4: alkaline phosphatase coupled to mono-functional IPDI-capped methoxy polyethylene oxide, NCO:NH2 14.9:1 (conjugate, UniProt P19111 20-506, looked up)
Intestinal-type alkaline …: LVPVEEEDPAFWNRQAAQALDVAKKLQPIQTAAKNVILFLGDGMGVPTVTATRILKGQMNGKLGPETPLAMDQFPYVALSKTYNVDRQVPDSAGTATAYLCGVKGNYRTIGVSAAARYNQCKTTRGNEVTSVMNRAKKAGKSVGVVTTTRVQHASPAGAYAHTVNRNWYSDADLPADAQMNGCQDIAAQLVNNMDIDVILGGGRKYMFPVGTPDPEYPDDASVNGVRKRKQNLVQAWQAKHQGAQYVWNRTALLQAADDSSVTHLMGLFEPADMKYNVQQDHTKDPTLQEMTEVALRVVSRNPRGFYLFVEGGRIDHGHHDDKAYMALTEAGMFDNAIAKANELTSELDTLILVTADHSHVFSFGGYTLRGTSIFGLAPSKALDSKSYTSILYGNGPGYALGGGSRPDVNDSTSEDPSYQQQAAVPQASETHGGEDVAVFARGPQAHLVHGVEEETFVAHIMAFAGCVEPYTDCNLPAPTTATSIPD
modifications: coupled to IPDI-capped methoxy PEG
For the molecule B1, in the series with alkaline phosphatase [1], the “alk phos activity dA/dt” value is on record as 0.0313 and the “alk phos activity % Remaining” value is recorded as 26.1%.

B2: C1: alkaline phosphatase coupled to tri-functional Prepolymer A (high temperature), NCO:NH2 0.7:1 (conjugate, UniProt P19111 20-506, looked up)
Intestinal-type alkaline …: LVPVEEEDPAFWNRQAAQALDVAKKLQPIQTAAKNVILFLGDGMGVPTVTATRILKGQMNGKLGPETPLAMDQFPYVALSKTYNVDRQVPDSAGTATAYLCGVKGNYRTIGVSAAARYNQCKTTRGNEVTSVMNRAKKAGKSVGVVTTTRVQHASPAGAYAHTVNRNWYSDADLPADAQMNGCQDIAAQLVNNMDIDVILGGGRKYMFPVGTPDPEYPDDASVNGVRKRKQNLVQAWQAKHQGAQYVWNRTALLQAADDSSVTHLMGLFEPADMKYNVQQDHTKDPTLQEMTEVALRVVSRNPRGFYLFVEGGRIDHGHHDDKAYMALTEAGMFDNAIAKANELTSELDTLILVTADHSHVFSFGGYTLRGTSIFGLAPSKALDSKSYTSILYGNGPGYALGGGSRPDVNDSTSEDPSYQQQAAVPQASETHGGEDVAVFARGPQAHLVHGVEEETFVAHIMAFAGCVEPYTDCNLPAPTTATSIPD
modifications: coupled to Prepolymer A
As to B2, the “binding of the antiserum raised against the antigen to immobilized alkaline phosphatase (immunogenicity)” value in the series on alkaline phosphatase [3] is on record as “negligible binding”.

B3: B2: alkaline phosphatase coupled to IPDI-capped diol TAKELACK P-24, NCO:NH2 2.7:1 (conjugate, UniProt P19111 20-506, looked up)
Intestinal-type alkaline …: LVPVEEEDPAFWNRQAAQALDVAKKLQPIQTAAKNVILFLGDGMGVPTVTATRILKGQMNGKLGPETPLAMDQFPYVALSKTYNVDRQVPDSAGTATAYLCGVKGNYRTIGVSAAARYNQCKTTRGNEVTSVMNRAKKAGKSVGVVTTTRVQHASPAGAYAHTVNRNWYSDADLPADAQMNGCQDIAAQLVNNMDIDVILGGGRKYMFPVGTPDPEYPDDASVNGVRKRKQNLVQAWQAKHQGAQYVWNRTALLQAADDSSVTHLMGLFEPADMKYNVQQDHTKDPTLQEMTEVALRVVSRNPRGFYLFVEGGRIDHGHHDDKAYMALTEAGMFDNAIAKANELTSELDTLILVTADHSHVFSFGGYTLRGTSIFGLAPSKALDSKSYTSILYGNGPGYALGGGSRPDVNDSTSEDPSYQQQAAVPQASETHGGEDVAVFARGPQAHLVHGVEEETFVAHIMAFAGCVEPYTDCNLPAPTTATSIPD
modifications: coupled to IPDI-capped diol polymer
B3: in the series with alkaline phosphatase [1], the “alk phos activity dA/dt” value turned out to be 0.0604 and the “alk phos activity % Remaining” value was determined as 50.3%.

B4: C2: alkaline phosphatase coupled to tri-functional Prepolymer A (high temperature), NCO:NH2 1.3:1 (conjugate, UniProt P19111 20-506, looked up)
Intestinal-type alkaline …: LVPVEEEDPAFWNRQAAQALDVAKKLQPIQTAAKNVILFLGDGMGVPTVTATRILKGQMNGKLGPETPLAMDQFPYVALSKTYNVDRQVPDSAGTATAYLCGVKGNYRTIGVSAAARYNQCKTTRGNEVTSVMNRAKKAGKSVGVVTTTRVQHASPAGAYAHTVNRNWYSDADLPADAQMNGCQDIAAQLVNNMDIDVILGGGRKYMFPVGTPDPEYPDDASVNGVRKRKQNLVQAWQAKHQGAQYVWNRTALLQAADDSSVTHLMGLFEPADMKYNVQQDHTKDPTLQEMTEVALRVVSRNPRGFYLFVEGGRIDHGHHDDKAYMALTEAGMFDNAIAKANELTSELDTLILVTADHSHVFSFGGYTLRGTSIFGLAPSKALDSKSYTSILYGNGPGYALGGGSRPDVNDSTSEDPSYQQQAAVPQASETHGGEDVAVFARGPQAHLVHGVEEETFVAHIMAFAGCVEPYTDCNLPAPTTATSIPD
modifications: coupled to Prepolymer A
Consider B4, for which, in the series with alkaline phosphatase [1], the “alk phos activity dA/dt” value turned out to be 0.0688 and the “alk phos activity % Remaining” value is 57.5%.

B5: Example IX: calf intestine alkaline phosphatase conjugated with Prepolymer A (low temperature), 1 hour reaction (conjugate, UniProt P19111 20-506, looked up)
Intestinal-type alkaline …: LVPVEEEDPAFWNRQAAQALDVAKKLQPIQTAAKNVILFLGDGMGVPTVTATRILKGQMNGKLGPETPLAMDQFPYVALSKTYNVDRQVPDSAGTATAYLCGVKGNYRTIGVSAAARYNQCKTTRGNEVTSVMNRAKKAGKSVGVVTTTRVQHASPAGAYAHTVNRNWYSDADLPADAQMNGCQDIAAQLVNNMDIDVILGGGRKYMFPVGTPDPEYPDDASVNGVRKRKQNLVQAWQAKHQGAQYVWNRTALLQAADDSSVTHLMGLFEPADMKYNVQQDHTKDPTLQEMTEVALRVVSRNPRGFYLFVEGGRIDHGHHDDKAYMALTEAGMFDNAIAKANELTSELDTLILVTADHSHVFSFGGYTLRGTSIFGLAPSKALDSKSYTSILYGNGPGYALGGGSRPDVNDSTSEDPSYQQQAAVPQASETHGGEDVAVFARGPQAHLVHGVEEETFVAHIMAFAGCVEPYTDCNLPAPTTATSIPD
modifications: conjugated with Prepolymer A
Regarding B5, the “enzymatic activity remained after the reaction” value with alkaline phosphatase [4] was found to be 54%.

B6: B3: alkaline phosphatase coupled to IPDI-capped diol TAKELACK P-24, NCO:NH2 6.8:1 (conjugate, UniProt P19111 20-506, looked up)
Intestinal-type alkaline …: LVPVEEEDPAFWNRQAAQALDVAKKLQPIQTAAKNVILFLGDGMGVPTVTATRILKGQMNGKLGPETPLAMDQFPYVALSKTYNVDRQVPDSAGTATAYLCGVKGNYRTIGVSAAARYNQCKTTRGNEVTSVMNRAKKAGKSVGVVTTTRVQHASPAGAYAHTVNRNWYSDADLPADAQMNGCQDIAAQLVNNMDIDVILGGGRKYMFPVGTPDPEYPDDASVNGVRKRKQNLVQAWQAKHQGAQYVWNRTALLQAADDSSVTHLMGLFEPADMKYNVQQDHTKDPTLQEMTEVALRVVSRNPRGFYLFVEGGRIDHGHHDDKAYMALTEAGMFDNAIAKANELTSELDTLILVTADHSHVFSFGGYTLRGTSIFGLAPSKALDSKSYTSILYGNGPGYALGGGSRPDVNDSTSEDPSYQQQAAVPQASETHGGEDVAVFARGPQAHLVHGVEEETFVAHIMAFAGCVEPYTDCNLPAPTTATSIPD
modifications: coupled to IPDI-capped diol polymer
With B6, in the series with alkaline phosphatase [1], the “alk phos activity dA/dt” value turned out to be 0.0389 and the “alk phos activity % Remaining” value came out at 32.4%.
